Results taken from IntAct's records for PubMed 17292836.

B1: 26S proteasome non-ATPase regulatory subunit 10 (Mus musculus), Q9Z2X2 (parent)
chain: MEGCVSNIMICNLAYSGKLDELKERILADKSLATRTDQDSRTALHWACSAGHTEIVEFLLQLGVPVNDKDDAGWSPLHIAASAGRDEIVKALLVKGAHVNAVNQNGCTPLHYAASKNRHEIAVMLLEGGANPDAKDHYDATAMHRAAAKGNLKMVHILLFYKASTNIQDTEGNTPLHLACDEERVEEAKFLVTQGASIYIENKEEKTPLQVAKGGLGLILKRLAESEEASM
partner: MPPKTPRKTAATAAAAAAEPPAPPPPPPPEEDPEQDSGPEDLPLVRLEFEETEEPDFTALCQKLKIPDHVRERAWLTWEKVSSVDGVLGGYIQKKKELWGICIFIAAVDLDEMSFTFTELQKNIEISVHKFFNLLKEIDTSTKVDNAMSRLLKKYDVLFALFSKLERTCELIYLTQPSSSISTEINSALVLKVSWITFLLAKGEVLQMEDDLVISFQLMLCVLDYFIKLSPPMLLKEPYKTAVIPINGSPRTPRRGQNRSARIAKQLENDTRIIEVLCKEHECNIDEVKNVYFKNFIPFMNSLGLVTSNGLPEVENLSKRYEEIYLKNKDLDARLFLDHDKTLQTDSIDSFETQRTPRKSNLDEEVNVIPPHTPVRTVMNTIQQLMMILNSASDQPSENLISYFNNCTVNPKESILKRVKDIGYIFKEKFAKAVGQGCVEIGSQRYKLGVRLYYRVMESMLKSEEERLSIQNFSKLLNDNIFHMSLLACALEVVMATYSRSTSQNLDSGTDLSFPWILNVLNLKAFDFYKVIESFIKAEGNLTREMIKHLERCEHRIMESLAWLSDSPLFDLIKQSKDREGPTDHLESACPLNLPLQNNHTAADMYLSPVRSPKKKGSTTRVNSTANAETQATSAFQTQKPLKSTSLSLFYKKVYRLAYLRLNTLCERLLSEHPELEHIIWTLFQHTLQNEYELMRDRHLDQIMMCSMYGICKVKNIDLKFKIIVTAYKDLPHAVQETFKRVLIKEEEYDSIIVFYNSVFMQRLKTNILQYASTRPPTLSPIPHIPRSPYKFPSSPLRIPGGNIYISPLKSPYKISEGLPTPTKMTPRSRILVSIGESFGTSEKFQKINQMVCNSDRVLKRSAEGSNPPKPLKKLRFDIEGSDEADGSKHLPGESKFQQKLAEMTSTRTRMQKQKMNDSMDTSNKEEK

Variants of: B1
Settings: with rb_human RB1, P06400

effect of a mutation on the interaction | Variant
disrupting interaction | MEGCVSNIMICNLAYSGKLDELKERILADKSLATRTDQDSRTALHWACSAGHTEIVEFLLQLGVPVNDKDDAGWSPLHIAASAGRDEIVKALLVKGAHVNAVNQNGCTPLHYAASKNRHEIAVMLLEGGANPDAKDHYDATAMHRAAAKGNLKMVHILLFYKASTNIQDTEGNTPLHLACDAERVEEAKFLVTQGASIYIENKEEKTPLQVAKGGLGLILKRLAESEEASM [E182A]
